Experimental findings from PMC12775068 are described below.

The target in this test is MUC2C-N (human MUC2 residues 4256-4803, C4786A; PTS3, VWCN, D4 and VWC1) (human). The experiment in a line: cross-linking.

In the case of “MUC2C-N (human MUC2 residues 4256-4803, C4786A; PTS3, VWCN, D4 and VWC1) (domain or fragment)”, the stoichiometry N is 2.

The stoichiometry N is the number of molecules, sites or subunits per partner or assembly.
